Experimental data as given in patent US20070004634A1.
No end group written: not given here.

T1: soluble human insulin receptor-immunoglobulin heavy chain chimera (sIR-Fc; Bass et al., 1996) (human), P06213
T1 chain: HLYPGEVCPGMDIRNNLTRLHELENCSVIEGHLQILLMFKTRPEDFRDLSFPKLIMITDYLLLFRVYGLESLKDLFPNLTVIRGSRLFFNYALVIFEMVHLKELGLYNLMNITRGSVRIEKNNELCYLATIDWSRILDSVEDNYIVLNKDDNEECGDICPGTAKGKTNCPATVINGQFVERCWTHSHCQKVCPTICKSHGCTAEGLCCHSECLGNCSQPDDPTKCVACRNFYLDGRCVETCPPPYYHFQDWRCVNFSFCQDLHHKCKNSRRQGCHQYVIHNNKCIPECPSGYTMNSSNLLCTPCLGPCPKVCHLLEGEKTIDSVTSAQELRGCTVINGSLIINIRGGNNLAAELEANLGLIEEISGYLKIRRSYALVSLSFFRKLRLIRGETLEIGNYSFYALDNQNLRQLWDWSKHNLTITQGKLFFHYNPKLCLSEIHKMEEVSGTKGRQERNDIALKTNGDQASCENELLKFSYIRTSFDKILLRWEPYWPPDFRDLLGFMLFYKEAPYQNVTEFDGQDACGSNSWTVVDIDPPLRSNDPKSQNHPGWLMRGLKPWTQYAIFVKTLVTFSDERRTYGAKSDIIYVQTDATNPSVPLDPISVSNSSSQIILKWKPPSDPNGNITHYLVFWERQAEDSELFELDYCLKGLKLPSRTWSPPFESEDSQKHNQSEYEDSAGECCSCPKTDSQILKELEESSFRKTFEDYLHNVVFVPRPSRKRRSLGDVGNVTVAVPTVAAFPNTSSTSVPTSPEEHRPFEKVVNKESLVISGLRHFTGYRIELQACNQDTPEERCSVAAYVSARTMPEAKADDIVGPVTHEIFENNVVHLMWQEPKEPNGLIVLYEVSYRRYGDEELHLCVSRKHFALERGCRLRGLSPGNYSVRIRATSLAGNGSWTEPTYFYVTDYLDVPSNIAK


Legend:
[1] = biological target: His-tagged soluble recombinant human IGF-IR (srhIGF-1R-his) (human), P08069; test: ALPHAScreen competition against b-hIGF-1 on srhIGF-1R-his
[2] = biological target: T1, soluble human insulin …; test: phage ELISA
[3] = biological target: soluble IGF-1R (recombinant human IGF-1R extracellular domain, R&D Systems Cat. # 391-GR/CF) (human), P08069; test: phage ELISA
[4] = biological target: soluble human insulin receptor-immunoglobulin heavy chain chimera (sIR-Fc; Bass et al., 1996) (human) (UniProt P06213); test: phage ELISA
[5] = biological target: IGF-1R on cells (MCF-7, MiaPaCa, FDC-P2 cells expressing human IGF-1R) (human) (UniProt P08069); test: cell-based or functional assay

Binder | IC50 [1] [nM] | IR/IGF-1R ratio comparison [2] | ratio over background [2] | IGF-1R/IR ratio comparison [3] | ratio over background [3] | IR/IGF-1R ratio comparison [4] | ratio over background [4] | Cellular EC50 (M), FDC-P2 cell proliferation [5] [M]
CMMXDGFYAGLGCLLTAGEGR (not fully specified; printed as CMM.DGFYAGLGCLLTAGEGR; X: residue not identified in the source; cysteine pairing not given here) [20E2B-3-C11-IGFR] |  | 0.1 | 2.1 | 7.5 | 15.4 |  |  | 
VVTPVNFYRALEALVRGXRLG (not fully specified; printed as VVTPVNFYRALEALVRG.RLG; X: residue not identified in the source) [20E2B-2-B11-IGFR] |  | 0.1 | 1.1 | 9.4 | 10.6 |  |  | 
CCLLCRFQQNFYDWFVCQGISRLRPL (modifications not checked) [H2CA-2-B4-IGFR] |  | 0.3 | 1.1 | 3.6 | 4.1 |  |  | 
RCGRWXAEMGAGDDPFYHKLSELVCG (not fully specified; X: residue not identified in the source; cysteine pairing not given here) [B6Hα-2-C4-IR] |  | 0.1 | 0.9 | 11 | 9.9 |  |  | 

Other lines, results leading:

IC50 [1] [nM] | IR/IGF-1R ratio comparison [2] | ratio over background [2] | IGF-1R/IR ratio comparison [3] | ratio over background [3] | IR/IGF-1R ratio comparison [4] | ratio over background [4] | Cellular EC50 (M), FDC-P2 cell proliferation [5] [M] | Binder
2200 |  |  |  |  |  |  |  | WLDQERAWLWCEISGRGCLS (modifications not checked) [lig-D815]
 |  |  |  |  | 0.3 | 1.9 |  | SQAGSAFYAWFDQVLRTVHSA [20E2Bβ-4-G6-IR]
710 |  |  |  |  |  |  | 3e-06 | GIISQSCPESFYDWFAGQVSDPWWCW (peptide, from a related filing) [G33-lig]
